Data: paper PMC10631208

B1: SPDGF (Apt35-FAM/cDNA12-BHQ1/cDNADCV) (mixed)
DNA 1: AAGGCTACGGCACGTAGAGCATCACCATGATCCTGTGTGGTCTATGTCGTCGTTCG
DNA 2: TGCCGTAGCCTT
DNA 3: AAGTATTACCAGAAACGAACGACGACATAGACCACA
B2: mSPDGF (mApt35-FAM/cDNA12-BHQ1/cDNADCV) (mixed)
DNA 1: AAGGCTACGGCACGATCTCGTAGTGGTCTGACTGCTGTGGTCTATGTCGTCGTTCG
DNA 2: TGCCGTAGCCTT
DNA 3: B1 DNA 3

Assays:
PDGF-BB [1] = target: T1, PDGF-BB (human, UniProt P01127 82-190); test: structure-switching fluorescence
PDGF-BB [2] = target: T1, PDGF-BB; test: structure-switching fluorescence; remark: listed apart in the source

T1 sequence (P01127 82-190): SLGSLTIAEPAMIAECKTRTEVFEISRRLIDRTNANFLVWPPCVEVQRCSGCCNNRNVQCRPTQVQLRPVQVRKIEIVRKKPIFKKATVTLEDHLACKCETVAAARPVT

| Binder | binding signal (PDGF-BB [1]) | binding result (PDGF-BB [2]) |
| --- | --- | --- |
| B1 | ~6.9 fold fluorescence increase |  |
| B2 |  | no binding |
